Measurements: paper PMC5342696

Biological target: membrane IgG (mIgG) on IgG-expressing B-cell lines (human (endogenous in CRL 2632 and CRL 2289)) [IgG part: P01857]
Test: hemadsorption/hemagglutination (protein G-RBC rosetting); mIgG-expressing B-cells exposed to protein G-RBCs at 4°C without added mAb, rosettes scored by phase contrast microscopy

Q: With “protein G on red blood cells (protein G-RBC) (from UniProt P19909 34-562) (natural protein)” as the substance, how does the HA background (percent rosetted cells) read?
A: < 30%
